T1: recombinant human IL-1α (human) (UniProt P01583)
T1 sequence: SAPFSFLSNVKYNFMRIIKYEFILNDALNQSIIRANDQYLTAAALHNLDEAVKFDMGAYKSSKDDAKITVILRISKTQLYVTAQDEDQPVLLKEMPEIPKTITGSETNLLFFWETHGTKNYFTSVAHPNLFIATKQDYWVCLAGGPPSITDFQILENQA


Assays:
[1] = molecular target: T1, recombinant human IL-1α (human); assay: SPR (Biacore), antibody captured, IL-1α in solution
[2] = molecular target: T1, recombinant human IL-1α (human); assay: cell-based or functional assay

Binder	Kd [1] [pM]	Neutralization Potency (IC50, pM), MRC-5 bioassay (IL-8 production) [2] [pM]
anti-human IL-1α monoclonal antibody 3D12 (antibody, from a related filing, V domains shown) VH: QIQLVQSGPELKKPGETVKISCKASGYTFRNYGMNWVKQAPGKDLKRMAWINTYTGESTYADDFKGRFAFSLETSASTAYLQINNLKNEDTATYFCARGIYYYGSSYAMDYWGQGTSVTVSS VL: IQMTQTTSSLSASLGDRVTISCRASQDISNCLNWYQQKPDGTVKLLIYYTSRLHSGVPSRFSGSGSGTDYSLTISNLEQEDIATYFCQQGKTLPYAFGGGTKLEINR	1340	1880
humanized anti-human IL-1α antibody H3D12.8 (antibody, from a related filing, human IgG1, V domains shown) VH: EIQLVQSGSELKKPGASVKVSCKASGYTFTNYGMNWVRQAPGQDLERMAWINTYTGESTYADDFKGRFVFSLDTSVSTAYLQISSLKAEDTAVYFCARGIYYYGSSYAMDYWGQGTTVTVSS VL: DIQMTQSPSSLSASVGDRVTITCRASQDISNCLNWYQQKPGKTPKLLIYYTSRLHSGVPSRFSGSGSGTDYTFTISSLQPEDIATYFCQQGKTLPYAFGQGTKLEIK	1350	1950
humanized anti-human IL-1α antibody H3D12.16 (antibody, from a related filing, human IgG1, V domains shown) VH: EIQLVQSGAEVKKPGASVKVSCKASGYTFTNYGMNWVRQAPGQDLERMAWINTYTGESTYADDFKGRFTFTLDTSTSTAYMELSSLRSEDTAVYFCARGIYYYGSSYAMDYWGQGTTVTVSS VL: DIQMTQSPSSLSASVGDRVTITCRASQDISNCLNWYQQKPGKTPKLLIYYTSRLHSGVPSRFSGSGSGTDYTFTISSLQPEDIATYFCQQGKTLPYAFGQGTKLEIK	2090	1360
humanized anti-human IL-1α antibody H3D12.r10 (antibody, from a related filing, human IgG1, V domains shown) VH: EIQLVQSGAEVKKPGASVKVSCKASGYTFAHYGMNWVRQAPGQGLEWMGWINTYTGQSTYADDFKGRFTFTLDTSTSTAYMELSSLRSEDTAVYYCARGIYYFGSNYAMDYWGQGTTVTVSS VL: DIQMTQSPSSLSASVGDRVTITCRASQDISNMLNWYQQKPGKTPKLLIYYTSRLRSGVPSRFSGSGSGTDYTFTISSLQPEDIATYFCQQGKKPPYTFGQGTKLEIK	32	0.6

Now those with a lower Kd [1], led by results:

Kd [1] [pM]	Neutralization Potency (IC50, pM), MRC-5 bioassay (IL-8 production) [2] [pM]	Binder
31	0.6	humanized anti-human IL-1α antibody H3D12.r16 (antibody, from a related filing, human IgG1, V domains shown) VH: EVQLVQSGAEVKKPGASVKVSCKASGYTFKYYGMNWVRQAPGQGLERMGWINTYTGQSTYADDFKGRVTFTLDTSTSTAYMELSSLRSEDTAVYYCARDIYYYGSDFAMDYWGQGTTVTVSS VL: DIQMTQSPSSLSASVGDRVTITCRASQDISNMLNWYQQKPGKAPKLLIYYTSRLKPGVPSRFSGSGSGTDYTFTISSLQPEDIATYFCQQGKTAPYTFGQGTKLEIK
28	1.4	humanized anti-human IL-1α antibody H3D12.r37 (antibody, from a related filing, human IgG1, V domains shown) VH: EIQLVQSGAEVKKPGASVKVSCKASGYTFKYYGMNWVRQAPGQGLERMGWINTYTGESRYADDFKGRVTFTLDTSTSTAYMELSSLRSEDTAVYYCARDIYYFGSDYAMDYWGQGTTVTVSS VL: DIQMTQSPSSLSASVGDRVTITCRASQDISNRLNWYQQKPGKAPKLLIYYASRLKPGVPSRFSGSGSGTDYTFTISSLQPEDIATYFCQQGNTPPYTFGQGTKLEIK
